Results from patent US20220298218A1 (ANTAG THERAPEUTICS, published 2022).
Where two headings read alike, the source gives them in different places. Where no end group is shown, it is not given here. The star is where a group is joined. C16 diacid = O=C(O)CCCCCCCCCCCCCCC(=O)*

T1: human GIP receptor (human, UniProt P48546 22-466)
T1 sequence (looked up): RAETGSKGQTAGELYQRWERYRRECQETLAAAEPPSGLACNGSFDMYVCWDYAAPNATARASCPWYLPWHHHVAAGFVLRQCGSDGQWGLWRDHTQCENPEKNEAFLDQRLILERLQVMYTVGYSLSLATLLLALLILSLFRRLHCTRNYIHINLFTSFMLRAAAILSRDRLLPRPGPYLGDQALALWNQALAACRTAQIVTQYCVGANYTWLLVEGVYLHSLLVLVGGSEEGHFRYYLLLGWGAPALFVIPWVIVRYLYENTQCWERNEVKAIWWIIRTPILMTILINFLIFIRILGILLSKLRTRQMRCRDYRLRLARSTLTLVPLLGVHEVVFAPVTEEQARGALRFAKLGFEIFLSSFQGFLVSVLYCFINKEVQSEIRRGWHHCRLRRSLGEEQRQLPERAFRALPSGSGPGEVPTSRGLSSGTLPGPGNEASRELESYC

B1: AT364 (peptide)
peptide: EGTFISDYSIAMDKIK(C16 diacid)QQDFVNWLLAQKGPSSGAPPPS-OH
modifications: N-terminus assumed
SMILES: CC[C@H](C)[C@H](NC(=O)[C@H](CO)NC(=O)[C@H](Cc1ccc(O)cc1)NC(=O)[C@H](CC(=O)O)NC(=O)[C@H](CO)NC(=O)[C@@H](NC(=O)[C@H](Cc1ccccc1)NC(=O)[C@@H](NC(=O)CNC(=O)[C@@H](N)CCC(=O)O)[C@@H](C)O)[C@@H](C)CC)C(=O)N[C@@H](C)C(=O)N[C@@H](CCSC)C(=O)N[C@@H](CC(=O)O)C(=O)N[C@@H](CCCCN)C(=O)N[C@H](C(=O)N[C@@H](CCCCNC(=O)CCCCCCCCCCCCCCC(=O)O)C(=O)N[C@@H](CCC(N)=O)C(=O)N[C@@H](CCC(N)=O)C(=O)N[C@@H](CC(=O)O)C(=O)N[C@@H](Cc1ccccc1)C(=O)N[C@H](C(=O)N[C@@H](CC(N)=O)C(=O)N[C@@H](Cc1c[nH]c2ccccc12)C(=O)N[C@@H](CC(C)C)C(=O)N[C@@H](CC(C)C)C(=O)N[C@@H](C)C(=O)N[C@@H](CCC(N)=O)C(=O)N[C@@H](CCCCN)C(=O)NCC(=O)N1CCC[C@H]1C(=O)N[C@@H](CO)C(=O)N[C@@H](CO)C(=O)NCC(=O)N[C@@H](C)C(=O)N1CCC[C@H]1C(=O)N1CCC[C@H]1C(=O)N1CCC[C@H]1C(=O)N[C@@H](CO)C(=O)O)C(C)C)[C@@H](C)CC
B2: AT366 (peptide)
peptide: TFISDYKIAMDKIHQQDFVNWLLAQKGKKNDW
HELM: PEPTIDE1{T.F.I.S.D.Y.K.I.A.M.D.K.I.H.Q.Q.D.F.V.N.W.L.L.A.Q.K.G.K.K.N.D.W}|PEPTIDE2{[O=C(O)CCCCCCCCCCCCCCC(=O)[*:2]].[gGlu]}$PEPTIDE1,PEPTIDE2,7:R3-2:R2$$$V2.0; N-terminus assumed
SMILES: CC[C@H](C)[C@H](NC(=O)[C@H](CCCCNC(=O)CC[C@H](NC(=O)CCCCCCCCCCCCCCC(=O)O)C(=O)O)NC(=O)[C@H](Cc1ccc(O)cc1)NC(=O)[C@H](CC(=O)O)NC(=O)[C@H](CO)NC(=O)[C@@H](NC(=O)[C@H](Cc1ccccc1)NC(=O)[C@@H](N)[C@@H](C)O)[C@@H](C)CC)C(=O)N[C@@H](C)C(=O)N[C@@H](CCSC)C(=O)N[C@@H](CC(=O)O)C(=O)N[C@@H](CCCCN)C(=O)N[C@H](C(=O)N[C@@H](Cc1c[nH]cn1)C(=O)N[C@@H](CCC(N)=O)C(=O)N[C@@H](CCC(N)=O)C(=O)N[C@@H](CC(=O)O)C(=O)N[C@@H](Cc1ccccc1)C(=O)N[C@H](C(=O)N[C@@H](CC(N)=O)C(=O)N[C@@H](Cc1c[nH]c2ccccc12)C(=O)N[C@@H](CC(C)C)C(=O)N[C@@H](CC(C)C)C(=O)N[C@@H](C)C(=O)N[C@@H](CCC(N)=O)C(=O)N[C@@H](CCCCN)C(=O)NCC(=O)N[C@@H](CCCCN)C(=O)N[C@@H](CCCCN)C(=O)N[C@@H](CC(N)=O)C(=O)N[C@@H](CC(=O)O)C(=O)N[C@@H](Cc1c[nH]c2ccccc12)C(=O)O)C(C)C)[C@@H](C)CC
B3: AT365 (peptide)
peptide: TFISDYKIAMDKIHQQDFVNWLLAQKGKK
HELM: PEPTIDE1{T.F.I.S.D.Y.K.I.A.M.D.K.I.H.Q.Q.D.F.V.N.W.L.L.A.Q.K.G.K.K}|PEPTIDE2{[O=C(O)CCCCCCCCCCCCCCC(=O)[*:2]].[gGlu]}$PEPTIDE1,PEPTIDE2,7:R3-2:R2$$$V2.0; N-terminus assumed
SMILES: CC[C@H](C)[C@H](NC(=O)[C@H](CCCCNC(=O)CC[C@H](NC(=O)CCCCCCCCCCCCCCC(=O)O)C(=O)O)NC(=O)[C@H](Cc1ccc(O)cc1)NC(=O)[C@H](CC(=O)O)NC(=O)[C@H](CO)NC(=O)[C@@H](NC(=O)[C@H](Cc1ccccc1)NC(=O)[C@@H](N)[C@@H](C)O)[C@@H](C)CC)C(=O)N[C@@H](C)C(=O)N[C@@H](CCSC)C(=O)N[C@@H](CC(=O)O)C(=O)N[C@@H](CCCCN)C(=O)N[C@H](C(=O)N[C@@H](Cc1c[nH]cn1)C(=O)N[C@@H](CCC(N)=O)C(=O)N[C@@H](CCC(N)=O)C(=O)N[C@@H](CC(=O)O)C(=O)N[C@@H](Cc1ccccc1)C(=O)N[C@H](C(=O)N[C@@H](CC(N)=O)C(=O)N[C@@H](Cc1c[nH]c2ccccc12)C(=O)N[C@@H](CC(C)C)C(=O)N[C@@H](CC(C)C)C(=O)N[C@@H](C)C(=O)N[C@@H](CCC(N)=O)C(=O)N[C@@H](CCCCN)C(=O)NCC(=O)N[C@@H](CCCCN)C(=O)N[C@@H](CCCCN)C(=O)O)C(C)C)[C@@H](C)CC
B4: AT454 (peptide)
peptide: EGTFISDYSIAMDKIK(C16 diacid)QQDFVNWLLAQKGKKNDWKHNIT-OH
modifications: N-terminus assumed
SMILES: CC[C@H](C)[C@H](NC(=O)[C@H](CO)NC(=O)[C@H](Cc1ccc(O)cc1)NC(=O)[C@H](CC(=O)O)NC(=O)[C@H](CO)NC(=O)[C@@H](NC(=O)[C@H](Cc1ccccc1)NC(=O)[C@@H](NC(=O)CNC(=O)[C@@H](N)CCC(=O)O)[C@@H](C)O)[C@@H](C)CC)C(=O)N[C@@H](C)C(=O)N[C@@H](CCSC)C(=O)N[C@@H](CC(=O)O)C(=O)N[C@@H](CCCCN)C(=O)N[C@H](C(=O)N[C@@H](CCCCNC(=O)CCCCCCCCCCCCCCC(=O)O)C(=O)N[C@@H](CCC(N)=O)C(=O)N[C@@H](CCC(N)=O)C(=O)N[C@@H](CC(=O)O)C(=O)N[C@@H](Cc1ccccc1)C(=O)N[C@H](C(=O)N[C@@H](CC(N)=O)C(=O)N[C@@H](Cc1c[nH]c2ccccc12)C(=O)N[C@@H](CC(C)C)C(=O)N[C@@H](CC(C)C)C(=O)N[C@@H](C)C(=O)N[C@@H](CCC(N)=O)C(=O)N[C@@H](CCCCN)C(=O)NCC(=O)N[C@@H](CCCCN)C(=O)N[C@@H](CCCCN)C(=O)N[C@@H](CC(N)=O)C(=O)N[C@@H](CC(=O)O)C(=O)N[C@@H](Cc1c[nH]c2ccccc12)C(=O)N[C@@H](CCCCN)C(=O)N[C@@H](Cc1c[nH]cn1)C(=O)N[C@@H](CC(N)=O)C(=O)N[C@H](C(=O)N[C@H](C(=O)O)[C@@H](C)O)[C@@H](C)CC)C(C)C)[C@@H](C)CC
B5: AT363 (peptide)
peptide: EGTFISDYSIAMDKIK(C16 diacid)QQDFVNWLLAQKGKKNDWKHNITQ-OH
modifications: N-terminus assumed
SMILES: CC[C@H](C)[C@H](NC(=O)[C@H](CO)NC(=O)[C@H](Cc1ccc(O)cc1)NC(=O)[C@H](CC(=O)O)NC(=O)[C@H](CO)NC(=O)[C@@H](NC(=O)[C@H](Cc1ccccc1)NC(=O)[C@@H](NC(=O)CNC(=O)[C@@H](N)CCC(=O)O)[C@@H](C)O)[C@@H](C)CC)C(=O)N[C@@H](C)C(=O)N[C@@H](CCSC)C(=O)N[C@@H](CC(=O)O)C(=O)N[C@@H](CCCCN)C(=O)N[C@H](C(=O)N[C@@H](CCCCNC(=O)CCCCCCCCCCCCCCC(=O)O)C(=O)N[C@@H](CCC(N)=O)C(=O)N[C@@H](CCC(N)=O)C(=O)N[C@@H](CC(=O)O)C(=O)N[C@@H](Cc1ccccc1)C(=O)N[C@H](C(=O)N[C@@H](CC(N)=O)C(=O)N[C@@H](Cc1c[nH]c2ccccc12)C(=O)N[C@@H](CC(C)C)C(=O)N[C@@H](CC(C)C)C(=O)N[C@@H](C)C(=O)N[C@@H](CCC(N)=O)C(=O)N[C@@H](CCCCN)C(=O)NCC(=O)N[C@@H](CCCCN)C(=O)N[C@@H](CCCCN)C(=O)N[C@@H](CC(N)=O)C(=O)N[C@@H](CC(=O)O)C(=O)N[C@@H](Cc1c[nH]c2ccccc12)C(=O)N[C@@H](CCCCN)C(=O)N[C@@H](Cc1c[nH]cn1)C(=O)N[C@@H](CC(N)=O)C(=O)N[C@H](C(=O)N[C@H](C(=O)N[C@@H](CCC(N)=O)C(=O)O)[C@@H](C)O)[C@@H](C)CC)C(C)C)[C@@H](C)CC

Tests used:
[1] = target: T1, human GIP receptor; experiment: cell-based or functional assay
[2] = target: T1, human GIP receptor; experiment: cell-based or functional assay; remark: listed apart in the source

Binder | cAMP antagonism [1] [nM] | cAMP antagonism % inhib [1] [%] | cAMP antagonism log [1] [log M] | cAMP agonism % Emax [2] [%] | cAMP antagonism [2] [nM] | cAMP antagonism % inhib [2] [%] | cAMP antagonism pIC50 [2] | cAMP agonism Emax [1]
B1 | 1 | 100 | -8.9 | 0 | 13.8 | 87 | 7.9 | 
B2 | 3 | 100 | -8.5 | 0 | 17.8 | 100 | 7.8 | 
B3 | 6 | 100 | -8.2 | 0 | 13.6 | 100 | 7.9 | 
B4 | 54 | 82 | -7.3 | 0 | 6.81 | 84 | 8.2 | 8.9
B5 | 5 | 82 | -8.3 | 0 | 12.6 | 90 | 7.9 | 7
